Measurements reported in PMC3864901, “A Conserved Sequence Extending Motif III of the Motor Domain in the Snf2-Family DNA Translocase Rad54 Is Critical for ATPase Activity” (PLoS ONE, 2013).

B1: Rad54 (Saccharomyces cerevisiae S288C) (protein)
chain: MARRRLPDRPPNGIGAGERPRLVPRPINVQDSVNRLTKPFRVPYKNTHIPPAAGRIATGSDNIVGGRSLRKRSATVCYSGLDINADEAEYNSQDISFSQLTKRRKDALSAQRLAKDPTRLSHIQYTLRRSFTVPIKGYVQRHSLPLTLGMKKKITPEPRPLHDPTDEFAIVLYDPSVDGEMIVHDTSMDNKEEESKKMIKSTQEKDNINKEKNSQEERPTQRIGRHPALMTNGVRNKPLRELLGDSENSAENKKKFASVPVVIDPKLAKILRPHQVEGVRFLYRCVTGLVMKDYLEAEAFNTSSEDPLKSDEKALTESQKTEQNNRGAYGCIMADEMGLGKTLQCIALMWTLLRQGPQGKRLIDKCIIVCPSSLVNNWANELIKWLGPNTLTPLAVDGKKSSMGGGNTTVSQAIHAWAQAQGRNIVKPVLIISYETLRRNVDQLKNCNVGLMLADEGHRLKNGDSLTFTALDSISCPRRVILSGTPIQNDLSEYFALLSFSNPGLLGSRAEFRKNFENPILRGRDADATDKEITKGEAQLQKLSTIVSKFIIRRTNDILAKYLPCKYEHVIFVNLKPLQNELYNKLIKSREVKKVVKGVGGSQPLRAIGILKKLCNHPNLLNFEDEFDDEDDLELPDDYNMPGSKARDVQTKYSAKFSILERFLHKIKTESDDKIVLISNYTQTLDLIEKMCRYKHYSAVRLDGTMSINKRQKLVDRFNDPEGQEFIFLLSSKAGGCGINLIGANRLILMDPDWNPAADQQALARVWRDGQKKDCFIYRFISTGTIEEKIFQRQSMKMSLSSCVVDAKEDVERLFSSDNLRQLFQKNENTICETHETYHCKRCNAQGKQLKRAPAMLYGDATTWNHLNHDALEKTNDHLLKNEHHYNDISFAFQYISH
notes: wild-type yeast Rad54, overexpressed in S. cerevisiae and purified as in earlier work

Tests used:
[1] = test system: Rad54 (Saccharomyces cerevisiae); assay: EMSA (glutaraldehyde-fixed, agarose); conditions: 13 mM Mg acetate, 25 mM TEA-Ac pH 7.5, 13 mM Mg acetate, 1.8 mM DTT, 100 ug/ml BSA, 11.25% glycerol, 113 mM NaCl, 30 uM bp pUC19, 30 C 15 min, then 0.25% glutaraldehyde 15 min …
[2] = substrate: Nc1ncnc2c1ncn2[C@@H]1O[C@H](COP(=O)(O)OP(=O)(O)OP(=O)(O)O)[C@@H](O)[C@H]1O; assay: NADH-coupled ATPase assay, Michaelis-Menten fit; type: biochemical, Saccharomyces cerevisiae; conditions: 1.5 uM pUC19 dsDNA, 2.5 mM free Mg(OAc)2, 25 mM HEPES pH 7.5, 30 C, 5 nM Rad54
Source text: NADH-coupled ATPase assay, Michaelis-Menten fit on Rad54 | Michaelis-Menten parameters of Rad54 and Rad54-2A as determined from the ATP titrations in B

Molecule	binding (bp per Rad54 monomer (all DNA bound)) ([1]; 5 mM ATP + regeneration system)	binding (bp per Rad54 monomer (all DNA bound)) ([1]; no nucleotide)	Km [2] [µM]	kcat [2]
pUC19 supercoiled dsDNA	36	36	–	–
B1	–	–	170 ± 40	1,219 ± 45 min-1
